Results on two molecules are retold here after patent US20260226161A1 (EXELIXIS, published 2026).

One may read the EC50 as the concentration at which the effect is half-maximal. Usually Kd stands for the free concentration of one partner at which half of the binding sites on the other are occupied at equilibrium, for simple one-to-one binding. Higher therefore signals weaker binding. In general, koff refers to the rate constant with which the complex falls apart. Low values mean a long-lived complex, high ones a short-lived complex. One may read the kon as the rate constant with which the complex forms.

Assay [1] concerns the target T1, PD-L1 expressed on cells (UniProt Q9NZQ7 19-290, limits assumed).
T1 construct: whole, on cells; also called MC/CAR cells expressing PD-L1; PD-L1+MDA-MB-231 cells
Briefly: flow cytometry on MC/CAR cells expressing PD-L1. As to the method:
(§1) Cells were collected by centrifugation at 400×g for 7 minutes and primary antibody was removed. 50 μL per well of AF488 goat anti human IgG Fab (Jackson Immuno Research 109-547-003) at 1:100 dilution was added. Plates were placed at 4° C. for 30 minutes.
(§2) Cells were collected by centrifugation at 400×g for 7 minutes and secondary antibody was removed. Cells were resuspended in 50 μL per well of PBS and analyzed by flow cytometry. Binding curves were calculated using the mean fluorescence intensity (MFI) of the FITC fluorescence signal on the cells. Bispecific antibody binding was evaluated in KHYG-1 cells expressing endogenous NKG2A and in MC/CAR cells expressing PD-L1. Cells were harvested and assayed for binding as described above.

Assay [2] addresses T2, CD94 (in the NKG2A/CD94 heterodimeric ectodomain complex) (UniProt Q13241 32-179).
T2 construct: extracellular domain; Tested only as part of the complex; also called CD94 protein
T2 sequence (looked up): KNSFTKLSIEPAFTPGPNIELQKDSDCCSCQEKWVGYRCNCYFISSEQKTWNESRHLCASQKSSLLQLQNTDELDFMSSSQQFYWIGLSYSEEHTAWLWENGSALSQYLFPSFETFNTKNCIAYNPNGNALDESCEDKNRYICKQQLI
Put plainly: HDX-MS on the NKG2A/CD94 ectodomain complex. As to the method:
Two different Quench conditions were used for digestion to improve the coverage. Both Data sets 1 and 2 were collected for 3 different timepoints (2, 10, and 60 mins) in triplicate. D₂O Buffer used was 20 mM Phos, 150 mM NaCl, pH 7.4. The relative fractional uptake greater than 5% was considered significant in the analysis.
Leap HDX auto sampler and Waters Cyclic IMS MS were the instruments used.
Quenching: The exchange reaction was quenched by a shift to acidic pH and a temperature drop (two proprietary conditions were used-potential variation in buffer formulation included the use of denaturants or reducing agents).

For assay [3], the target named is T3, Human NKG2A & CD94 with mouse IgG2a Fc tag (AcroBiosystems) (human, UniProt P26715 94-233; Q13241 32-179, limits assumed).
T3 construct: Bought soluble antigen of the Carterra assay; also called hNKG2A; not shown: mouse IgG2a Fc tag
Put plainly: SPR (Carterra), antibody on chip, soluble antigen.

Assay [4] concerns the target T4, Human PD-L1 with His tag (AcroBiosystems) (human, UniProt Q9NZQ7 19-238).
T4 construct: Bought protein; also called hPD-L1; not shown: His tag
Briefly: SPR (Carterra), antibody on chip, soluble antigen.

A further assay concerns the target Cyno PD-L1 (cyno, UniProt G7PSE7 19-238). Briefly: SPR (Carterra), antibody on chip, soluble antigen.
The target in assay [5] is T5, cynomolgus NKG2A/CD94 (soluble antigen of the equilibrium assay) (cynomolgus, UniProt Q68VD2 94-233; Q68VD4 32-179, Biotinylated in the Octet assays of Example 2; state in the SPR equilibrium assay not seen.).
T5 construct: also called Cyno NKG2A/CD94; copies: 1 + 1
Briefly: SPR equilibrium response, Langmuir isotherm; antibody on chip, soluble antigen. As to the method:
In addition, a method using an equilibrium approach was performed. Kd determinations for cynomolgus NKG2A/CD94 were performed by measuring the signal response at equilibrium. […] The equilibrium response signals and corresponding antigen concentrations were then input into a Langmuir binding isotherm model, and the Kd was determined through nonlinear regression. Averages and standard deviations were calculated from 24 replicate chip locations for each molecule.

Assay [6] addresses T6, NKG2A expressed on KHYG-1 cells (endogenous) (human, UniProt P26715 1-233; Q13241 1-179).
T6 construct: whole, on cells; Surface NKG2A copy number of approximately 10-20K; also called KHYG-1 cells expressing endogenous NKG2A; NKG2A-expressing cells
Put plainly: flow cytometry on KHYG-1 cells expressing endogenous NKG2A. Here is the method:
as §1, §2

Assay [7] addresses T1, PD-L1 expressed on cells. Briefly: cell-based or functional assay.
The target in assay [8] is T6, NKG2A expressed on KHYG-1 cells …. Briefly: flow cytometry competition; inhibition of HLA-E tetramer binding to KHYG-1 cells. Here is the method: 15 μL per well of binder dilution at 2× concentration was plated in a 96-well plate (Costar 3897). 15 μL per well of cell suspension at 5×10⁶ cells per mL was added. Plates were placed at 4° C. for 30 minutes. Following the incubation, 5 μL per well of Fc block (BD Pharmingen Cat #564220) was added at a final concentration of 500 ng per well. Plates were placed at 4° C. for 10 minutes. […] Plates were placed at 4° C. for 1 hour. Following the incubation, 100 μL per well of PBS was added and plate was centrifuged at 400×g for 7 minutes. Supernatant was removed by flicking the plate. Cells were resuspended in 50 μL per well of PBS and analyzed by flow cytometry (Intellicyt).

For assay [9], the target named is T1, PD-L1 expressed on cells. Put plainly: cell-based or functional assay. This is another data set of the same source.
For assay [10], the target named is T6, NKG2A expressed on KHYG-1 cells …. Put plainly: cell-based or functional assay.
Assay [11] concerns the target T7, biotinylated human NKG2C/CD94 heterodimer (extracellular domains, Fc fusions) (human, UniProt P26717 94-231; Q13241 32-179, biotinylated).
T7 construct: not shown: N-terminal Fc (hole)
Put plainly: selection summary of Examples 2-5 (Octet binding).

Assay [12] deals with T8, biotinylated cyno NKG2A/CD94 heterodimer (extracellular domains) (cynomolgus, UniProt Q9MZJ3 94-233; Q9MZK9 32-179, biotinylated).
T8 construct: also called Cynomolgus NKG2A protein; not shown: fusion partner/tags ('similar approach' to the human proteins); fusion partner ('similar approach')
Put plainly: selection summary of Examples 2-5 (Octet binding). (In general: BLI is a label-free optical method that tracks binding on a fibre tip over time.)

Assay [13] deals with T6, NKG2A expressed on KHYG-1 cells …. Put plainly: flow cytometry on KHYG-1 cells expressing endogenous NKG2A. Here is the method: Antibodies that were selected for binding to NKG2A, for example, such as those described in Examples 1 and 2, were evaluated for binding to cells that express NKG2A.
Cells were harvested at 70-90% confluence on the day of the assay. Cells were collected by centrifugation at 200×g for 5 minutes and media was removed. Cells were resuspended at 2×10⁶ cells per mL in cold PBS. […] 50 μL per well of the antibody dilution was plated in a 96 well V-bottom plate (Costar 3897). 50 μL per well of cell suspension was added. Plates were placed at 4° C. for 45-60 minutes.
The source holds these as a separate data set. Background: In flow cytometry, cells or beads pass a laser one at a time.

T4 sequence (Q9NZQ7 19-238 limits assumed): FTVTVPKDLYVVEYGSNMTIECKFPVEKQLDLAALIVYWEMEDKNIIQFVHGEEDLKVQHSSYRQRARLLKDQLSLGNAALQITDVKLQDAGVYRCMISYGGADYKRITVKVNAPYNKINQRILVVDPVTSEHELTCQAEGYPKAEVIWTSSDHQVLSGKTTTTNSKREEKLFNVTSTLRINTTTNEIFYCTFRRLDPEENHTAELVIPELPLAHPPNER
Cyno PD-L1, sequence (G7PSE7 entry or part of it limits assumed): as the sequence (Q9NZQ7 19-238 limits assumed) above, with A33T, A34S, S62N, R68Q, Q82R, F173L, T185A, T192I, H215L counted along it
T1 sequence (Q9NZQ7 19-290 limits assumed): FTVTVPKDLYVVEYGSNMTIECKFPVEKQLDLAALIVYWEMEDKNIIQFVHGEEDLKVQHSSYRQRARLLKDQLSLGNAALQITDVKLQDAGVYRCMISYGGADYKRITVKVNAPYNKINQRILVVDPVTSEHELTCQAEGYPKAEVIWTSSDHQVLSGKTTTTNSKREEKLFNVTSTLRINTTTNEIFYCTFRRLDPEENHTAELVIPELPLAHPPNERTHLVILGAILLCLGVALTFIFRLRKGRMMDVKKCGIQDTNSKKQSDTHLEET
T3 sequence (P26715 94-233 limits assumed, one chain of several): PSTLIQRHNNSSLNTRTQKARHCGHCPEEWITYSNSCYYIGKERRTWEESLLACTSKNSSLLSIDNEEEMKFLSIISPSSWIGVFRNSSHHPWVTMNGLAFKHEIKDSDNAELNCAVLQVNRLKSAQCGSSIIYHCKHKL
T5 sequence (NKG2A, as listed by the source limits assumed, chain 1 of 2): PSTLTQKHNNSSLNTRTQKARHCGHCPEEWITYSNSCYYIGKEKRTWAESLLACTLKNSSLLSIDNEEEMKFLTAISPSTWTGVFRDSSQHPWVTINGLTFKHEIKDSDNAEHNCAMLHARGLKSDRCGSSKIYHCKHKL
T5 sequence (CD94, as listed by the source limits assumed, chain 2 of 2): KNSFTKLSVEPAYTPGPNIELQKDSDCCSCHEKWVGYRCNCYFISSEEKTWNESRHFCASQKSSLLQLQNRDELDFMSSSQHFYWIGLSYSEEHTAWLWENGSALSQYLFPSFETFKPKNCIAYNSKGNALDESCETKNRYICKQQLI
T8 sequence (Q9MZJ3 other isoform, or with tags, fused parts or gaps, chain 1 of 2): as the sequence (NKG2A, as listed by the source limits assumed, chain 1 of 2) above
T8 sequence (Q9MZK9 32-179, chain 2 of 2): as the sequence (CD94, as listed by the source limits assumed, chain 2 of 2) above
T7 sequence (P26717 other isoform, or with tags, fused parts or gaps): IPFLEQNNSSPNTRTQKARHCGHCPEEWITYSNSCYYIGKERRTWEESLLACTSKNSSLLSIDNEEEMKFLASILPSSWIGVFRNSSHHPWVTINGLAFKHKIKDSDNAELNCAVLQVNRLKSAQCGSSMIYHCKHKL

B1: P12 × A11 (1 × 1 format) (bispecific antibody)
heavy 1: DIQMTQSPSSLSASVGDRVTITCRASQSVSSAVAWYQQKPGKAPKLLIYSASSLYSGVPSRFSGSRSGTDFTLTISSLQPEDFATYYCQQFMLEPITFGQGTKVEIKGQPREPQVCTLPPSRDELTKNQVSLTCLVRGFYPSDIAVEWESNGQPENNYKTTPPVLDSDGSFFLYSKLTVDKSRWQQGNVFSCSVMHEALHNHYTQKSLSLSPGKDKTHTCPPCPAPEAAGGPSVFLFPPKPKDTLMISRTPEVTCVVVDVSHEDPEVKFNWYVDGVEVHNAKTKPREEQYNSTYRVVSVLTVLHQDWLNGKEYKCKVSNKALKAPIEKTISKAKGQPREPQVYTLPPSREEMTKNQVSLSCAVKGFYPSDIAVEWESNGQPENNYKTTPPVLDSDGSFFLVSKLTVDKSRWQQGNVFSCSVMHEALHNHYTQKSLSLSPGK
light 1: EVQLVESGGGLVQPGGSLRLSCAASGFTFSSYYIHWVRQAPGKGLEWVATINSRGGFTLYADSVKGRFTISADTSKNTAYLQMNSLRAEDTAVYYCARGYTLTPVLDYWGQGTLVTVSSAQPREPQVYTLPPCRDWLTKNQVSLTCLVKGFYPSDIAVEWESNGQPENNYKTTPPVLDSDGSFFLYSKLTVDKSRWQQGNVFSCSVMHEALHNHYTQKSLSLSPGK
heavy 2: not shown
light 2: EVQLVESGGGLVQPGGSLRLSCAASGFTFSWYYIHWVRQAPGKGLEWVAVIDPISSYTYYADSVKGRFTISADTSKNTAYLQMNSLRAEDTAVYYCARGFDRAMDYWGQGTLVTVSSASTKGPSVFPLAPSSKSTSGGTAALGCLVKDYFPEPVTVSWNSGALTSGVHTFPAVLQSSGLYSLSSVVTVPSSSLGTQTYICNVNHKPSNTKVDKKVEPKSC
notes: One PD-L1 site, one NKG2A site; also called P12×A11, sFc; P12×A11 (sFc)
B1: the EC50 with PD-L1 expressed on cells [1] worked out at 2170 pM; in assay [6], 2800 pM; in [8], 66000 pM. Moreover, in assay [2], the binding result is reported as “no binding”. In addition, the Kd in [3] stood at 380 pM; in [4] it was 170 pM; in the assay with Cyno PD-L1, 110 pM; in [5], 49000 pM. Moreover, the koff in assay [3] was 9e-05 s⁻¹; in [4] it was 8e-05 s⁻¹; with Cyno PD-L1, 6e-05 s⁻¹. The kon in [3] came out at 240000 M⁻¹ s⁻¹; in [4], 470000 M⁻¹ s⁻¹; in the assay with Cyno PD-L1 it was 540000 M⁻¹ s⁻¹. Also, the “IC50 of inhibiting PD-1/PD-L1 interaction in PD-L1+MDA-MB-231 cells (PD-1/PD-L1 Signaling Bioassay, chemiluminescent signal)” value with PD-L1 expressed on cells [7] is 557 pM. The “EC50 (read off the curve) of doublet formation between NKG2A+ KHYG-1 and PD-L1+ LCL721.221-PD-L1 cells” value (with PD-L1 expressed on cells [9]; in assay [10]) was approximately 200 pM each time.

B2: Antibody Clone A42 (antibody, human IgG1, kappa, V domains shown)
VH: EVQLVESGGGLVQPGGSLRLSCAASGFTFSWYYIHWVRQAPGKGLEWVAVIDPISSYTYYADSVKGRFTISADTSKNTAYLQMNSLRAEDTAVYYCARGFDRAMDYWGQGTLVTVSS
VL: DIQMTQSPSSLSASVGDRVTITCRASQSVSSAVAWYQQKPGKAPKLLIYSASSLYSGVPSRFSGSRSGTDFTLTISSLQPEDFATYYCQQYYSSPYTFGQGTKVEIKR
For B2, the binding result is given as “no binding” in [11] and “binds” in assay [12]. The same molecule had an EC50 in assay [13] of 26700 pM.
